Measurements reported in paper PMC9635822.

Assays:
Test in all cases: optical tweezers, force between two trapped cells
[1] = biological target: AGA2-SpyCatcher displayed on S. cerevisiae cells (ScB)
[2] = biological target: AGA2-SpyTag displayed on S. cerevisiae cells (ScA)
[3] = biological target: AGA2-CL7 displayed on S. cerevisiae cells (ScΦ) (UniProt Q47112)
[4] = biological target: AGA2-Im7 displayed on S. cerevisiae cells (ScΨ) (UniProt Q03708)
Chain of UniProt Q03708 (Q03708 whole entry): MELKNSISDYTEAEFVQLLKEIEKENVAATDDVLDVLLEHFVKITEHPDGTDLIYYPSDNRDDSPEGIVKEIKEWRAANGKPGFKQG

Question: Which results are given for “AGA2-SpyTag displayed on S. cerevisiae cells (ScA) (peptide)”?
Answer: force needed to pull apart the new cells of the cluster [1]: < 248 pN; pulling force up to which the two cells remained attached [1]: 335 pN; interaction force between the two cells [2]: < 10 pN

Question: Which interaction force between the two cells [3] does the source give for “AGA2-SpyCatcher displayed on S. cerevisiae cells (ScB) (designed binder)” here?
Answer: Its interaction force between the two cells is less than 10 pN.

Question: Which results are given for “AGA2-CL7 displayed on S. cerevisiae cells (ScΦ) (from UniProt Q47112 371-576) (domain or fragment)”?
Answer: force needed to pull apart the new cells of the cluster [4]: < 351 pN; pulling force up to which the two cells remained attached [4]: 335 pN
